Biological target: ZAP-S (short isoform of zinc-finger antiviral protein) (human, UniProt Q7Z2W4-2 1-699)
Experiment: MST; 5 mM Mg2+
Details: protein: recombinant, tags: N-terminal 6xHis-SUMO, label: 3' pCp-Cy5

Sequence of ZAP-S (short isoform of zinc-finger antiviral protein) (Q7Z2W4 other isoform, or with tags, fused parts or gaps): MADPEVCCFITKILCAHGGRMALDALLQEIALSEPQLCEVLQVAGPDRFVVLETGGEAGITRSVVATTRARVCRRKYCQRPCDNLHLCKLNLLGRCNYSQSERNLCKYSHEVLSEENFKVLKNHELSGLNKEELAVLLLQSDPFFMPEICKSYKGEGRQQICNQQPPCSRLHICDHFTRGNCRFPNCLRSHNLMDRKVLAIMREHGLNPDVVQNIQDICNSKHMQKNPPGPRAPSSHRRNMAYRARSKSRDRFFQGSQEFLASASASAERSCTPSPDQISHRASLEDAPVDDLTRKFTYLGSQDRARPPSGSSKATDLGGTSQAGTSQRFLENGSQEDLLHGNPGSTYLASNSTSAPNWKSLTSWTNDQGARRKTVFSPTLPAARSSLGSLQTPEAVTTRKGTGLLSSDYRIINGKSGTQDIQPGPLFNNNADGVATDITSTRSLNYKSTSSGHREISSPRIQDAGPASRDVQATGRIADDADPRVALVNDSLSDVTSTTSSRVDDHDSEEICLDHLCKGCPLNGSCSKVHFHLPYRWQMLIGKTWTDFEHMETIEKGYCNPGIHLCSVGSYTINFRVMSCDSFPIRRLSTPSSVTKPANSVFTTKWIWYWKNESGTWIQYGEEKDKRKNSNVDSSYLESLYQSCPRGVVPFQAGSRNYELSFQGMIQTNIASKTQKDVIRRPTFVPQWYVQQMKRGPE

## UCGUUUUUAAACGGGUUUGCGGUGUAAGUGCAGCCCGUCUUACACCGU (structured_RNA) [dSL2+3 mutant (SL1 only)]
hairpin
  binding result: no binding

B1: dSL3 mutant (structured_RNA)
RNA: UCGUUUUUAAACGGGUUUGCGGUGUAAGUGCAGCCCGUCUUACACCGUAUACAGGGCU
Shorter pseudoknot (predicted)
  Kd: 175 ± 64 nM

B2: Compensatory mutant (structured_RNA)
RNA: UCGUUUUUAAACGGGUUUGGGGUGUAAGUGCAGCCCGUCUUACACCCUGGGGCACAGGCACUAGUACUGAUGUCCUAUACAGGGCU
Pseudoknot (predicted)
  Kd: 128 ± 29 nM

B3: dSL2 mutant (structured_RNA)
RNA: UCGUUUUUAAACGGGUUUGCGGUGUAAGUGCAGCCCGUCUUACACCGUGCGGCACAGGCACUAGUACUGAUGUCGU
Two consecutive stem-loops
  Kd: 672 ± 164 nM
